Results taken from the nanobody polyreactivity screen of Harvey et al. (2022).

Test: yeast display, Sf9 membrane polyspecificity reagent, FACS + sequencing; frameworks hold sequencing errors
Method in brief: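 Using colony PCR, genes from sorted yeast display clones were amplified, then sequenced on MiSeq at 2 × 250 and filtered by CDR length. The clones had been stained with 10% biotinylated, detergent-solubilized Sf9 membrane reagent for 1 hour at 4 °C and sorted by FACS into low and high (top ~1%) gates on anti-HA and streptavidin fluorescence. Polyreactivity labels come from the gate of origin.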

| Sequence | polyreactivity (PSR sort gate) |
| --- | --- |
| QVQHVESGGALVQAGGSLRLSCAASGSTFTRNAMGWDRHAPGKERELVAAITSSGTSTYYADSVKGRFTISRDNAKNTVYLQMNSLKPEATAVYYCAAGIQSTYPKGGYRVTYYYWGQGTQVTVSS | high polyreactivity |
| QVQLVESGGGLVQAGGSLRLSCAASGLTFASYAMGWYRQAPGKERDLVARISRSGGSTYYADSVKGRFTISRDNAKNTVYLQMNSLKPEDTAVYYCAADYIFRRYPVGGIYDYDYWGQGTQVTVSS | high polyreactivity |
| QVQRVESGGGLVQAGGSLRLSCAASGFTFSLYGMGWYRPARGKGRELVAAIRSGGSTNYADSVKGRYTISRDNAKNTVYLQMNSLKPEDTAVYYCATDIHSGHNNRDKHDYDYWGQGTQETVSS | low polyreactivity |
| QVQLVESGGGLVQAGGSLRLSCASSGFTFFYYAMGWYRQAPGKERELVAAISASGGSTSYADSVKGRFTISRDNAKNTVYLQMNSLKPEDTAVYYCAARVYSVRSGYYYWGQGTQVTVSS | high polyreactivity |
| QVQLVESGGGLVQAGGSLRLSCAASGRIFIVNAMGWYRQAPGKERELVAAISYRGGSTYYADSVKGRFTISRDNAKNTVYLQMNSLKPEDTAVYYCNKDSTGDGYDYWGQGTQVTVSS | low polyreactivity |
| QVQLVESGGGLVQAGGSLRLSCAASGSTFVRYAMGWYRLAPGKERELVAAIAKSGGSTYYADSVKGRFTISRDIAKNTVYLQMNSLKPEDTAVDYCNSDVYKNSKVRIMGYWGLGTQVTVSS | low polyreactivity |
| QVQLVESGGGLVQAGGSLRLSCAASGSTLWYYAMGWYRQAPGKERELVADITSSGNTNYADSVKGRFTISRDNAKNTVYLQMNSLKPEDTAVYYCAADSANYQWYLSWQKDDYWGQGTQVTVSS | low polyreactivity |
| QVQLVESGGGLVQAGGSLRLSCAASGSTFESYAMGWYRQAPGKERELVAAISGRVGSTYYADSVKGRFTISRDNAKNTVYLQMNSLKPEDTAVYYCASKGWYSHYGGYDYWGQGTQVTVSS | low polyreactivity |
| QVQLVESGGGLVQAGGSLRLSCAASGFIFYIYPMGWYRQAPGKERELLAAISWNGGSTYYADSVKGRFTISRDNAKNTVYLQMNSLNPEDTAVFYCATLARYRYGTGRFDYWGQGTQVTVSS | high polyreactivity |
| QVQLVESGGGLVQAGGSLRLSCAASGSTFRDYAMGWYRQAPGKERELVAAITYSDGGTYYADSVKGRFTISRDNAKNTVYLQMNSLKPEDTAVYYCAADYPIYSFYYSAYFIFGYWGQGSQVTVSS | low polyreactivity |
| QVQLVESGGGLVQAGGSLRLSSAASGFTFARYAMGWYRQAPGKERELVAAITFSGTRTYYADSVKGRFTISRDNAKNTVYLQMNSLKPEDTAVYYCAAVVQTKAYRKAVYYFSSYDYWGQGTQVTVSS | high polyreactivity |
| QVQLVESGGGLVQAGGSLRLSCAASGRIFSWNAMGWYRQAPGKERELVAAISSGGSTIYADSVKGRFTISRDNAKNTVYLQMNSLKPEYTAVYYCATRNGYSGTYGYWGQGTQVTVSS | low polyreactivity |
| QVQLVESGGGLVQAGGSLRLSCAASGRTFRYYTMGWYRQAPGKEREFVAAISSTGGTYYADSVKGRFTISRDNAKNTVYLLMNSLKPEDTAFYYCAATFIQVVVNVQLYDYDYWGQGTQVTVSS | low polyreactivity |
| QVQLVESGGGLVQAGGSLRLSCAASGIIFRTYAMGWYRQAPGKERELVAAITGRGSNTYYADSVKGRFTISRDNAKNTVYLQMNSLKPEETAVYYCNARYYDYRVALRYDYWGQGTQVTVSS | high polyreactivity |
| QDQLVESGGGLVQAGGSLRLSCAASGRIFRYYAMGWYRQAPGKERELVAGMSGSGGSTYYADSVKGRFTISRDNAKNTVYLQMNSLKPEDTAVYYCAADYVRVGSLHGVYTYKKYDYWGQGTQVTVSS | high polyreactivity |
| QVQLVESGGGLVQAGGSLRLSCAASGITFESNAMGWYRQAPGKEREFVAAISYDGGDTYYADSVKGRFTISRDNAKNTVYLQMNSLKPEDTAVYYCAAEPGWTMDYWGQGTQVTVSS | low polyreactivity |
| QVQLVESGGGLVQAGGSLRLSCAASGRIFGSYAMGWYRQAPGKERELVATITFGGGSTYYAESEKGRFTISRDNAKNTVYLQMNSLKPEDTAVYYCAADSGYLGIYGDEYSWGQGTQVTVSS | low polyreactivity |
| QVQLVESGGGLVQAGGSLRLSCAASGFTFGYYGMGWYRQATGKEMELVAAIDCSGASTYYADSVKGRFTISRDNAKNTVDLQINSLKPEDSAVYYCNADRYLYSLYTYEYDYWGHGTQVTVSS | low polyreactivity |
| QVQLVESGGGLVQAGGSLRLICAASGSTFEYSTMGWYRPAPGKERELVAAINSSGGRTYYADSVKGRFTISRDNAKNTVYLQMNSLKPEDTAVYYCNARWRSGPRAYDYWGQGTQVTLSS | high polyreactivity |
| QDQLVESRGGLVQAGGSLRLSCAASGFTFGRYAMGWYRQAPGKERELVAVITSSGGRTYYADSVKGRFTISRDNAKNTVYLQMNSLKPEDTAVYYCHKYPLRLYGYDYWGQGTQVTVSS | high polyreactivity |
| HVQLQETGGGLVQAGGCLSCTASGTIFGQGDMGWYRPAPGKERELVATINDGASTYYADSVKGRFTISRDKAKNTVYLQKNSLKPDDTAVNYCAVFTDITTYFGYWGQGTQVTVSS | low polyreactivity |
| QVQLVESGGGIVQAGGSLRLTCAASGSTFEIYAMGWYRQAPGKERELVAAISSGGSTNYADSVKGRFTISRDNAKNTVYLQMNSLKPDDTAVYDCAAVLYSRLYWYRLDYWGQGTQVTVSS | low polyreactivity |

| Sequence | polyreactivity (PSR sort gate) |
| --- | --- |
| QVQLVESAGGLVQAGGSLRLSCPASGRTFFPYAMGWYRQPPGQEREFVAAITNTDDSTYYADSVKGRFTISRDNAKNTVYLQMNSLKPEDTAVYYCNAGDTQIRFYYWGQGSQVTVSS | low polyreactivity |
| QVQLVESGGGLVQAGGSLRLSCAASGSTFFPNAMGWYRQAPGKEREFVAAISWSGGRTYYADSVKGRFTISRDNAKNTVYLQMNSLKPEDTAVYYCAARLYTVRYGYWGQGTQVTVSS | high polyreactivity |
| QVQLVESGGGLVQAGGSLRLSCAASGSIFKYYAKGWYRQAPGKERELVAAITIGGNTNYADSVKGRFTISRDNAKNTVYLQMNSLKPEDTAVYYCATGGYYSAIVYGGYDYWGQGTQVTVSS | low polyreactivity |
| QVQLVESGGGLVQAGGSLRLSCAASGSTFPRYAMGWYRQAPGKERELVAAITYSGGRTYYADSVKGRFTISRDNAKNTVYLQMNSLKPEDTAVYYCAARYGPYRFNPMGYWGQGTQVTVSS | high polyreactivity |
| QVQLVESGGGLVQAGGSLGLSCAASGSTFHLYAMGWYRQAPGKEREFVAAIRGRGGNTYADSVKGRFTISRDNAKNTVSLQMNSLKPEDTAVYYCAAPLLRVLRSPYSYNYWGQGTQVTVSS | low polyreactivity |
| HVQLVESGGGLVQAGGSLRLSCAASGRILYGNAMGWYRKAPGKDRELVAAISWRADSTYYADSVKGRFTISRDNAKNTVYLQMNSLKPEDTAVYYCAADGNYRRHYWGQGTQVTVSS | high polyreactivity |
| QVQLVESGGGLVHAGGSLRLSCAASGIIFQYYLMGSYRPAPGKERELVAAIDKSGGSTYYADSVKGRFTISRDNAKNTVYLQMNSLKPEDTAVYYCAATSYAHKYYGYFGAIKYEYWGQGTQVTVSS | low polyreactivity |
| QVQLVESGGGLVQAGGSLRLSCAASGSTFSYYAMGWYRQAPGKERELVAAITRGGSTYYADSVKGRFTISRDNAKNTVYLQMNSLKPEDTAVYYCATRTWRWGYLHYDYWGQGTQVTVSS | low polyreactivity |
| QVQLVESGGGLVQAGGSLRLSSAASGRTFAWNAMGWYRQAPGKERELVAAISYNGGRTYYADSVKGRFTISRDNAKNTVYLQMNSLKPEDTAVYYCAAQRYGYWGQGTQVTVSS | high polyreactivity |
| QYQLVESGRGLVQAGGSLRLSCAASGSTFRSYAMGWYRQAPGKERDLVAAITSSGGRTYYADSVKGRFTISRDNAKNTVYLQMNSLKPEDTAVYYCAARTYSWGDWGQGTQVTVSS | high polyreactivity |
| QVQLVESGGGLVQAGGSLRLSCAASGSIFNTYAMGWYRQAPGKERELVAAITWSGGSTYYADSVKGRFTISRDNAKNTVYLQRNSLKPEDTAVYDCAARQRRQSYWGQGTQVTVSS | high polyreactivity |
| QVQLVESGGGLLQAGGSLRVSCAASGFIFVLYAMGWYRQAPGKERELVAAITWSTGCTYYADSVKGRFTISRDNAKNTVYLHMNSLKPEDTAVYYCSADQYIFGIWFDYWGQGTQVTVSS | high polyreactivity |
| QVQLVESGGGLVQAGGSLRLSCAASGFTFTAYARGWYRQAPGKERELVAAINWSGSRTSYADSVKGRFTISRDNAKNTVYLQMNSLKPEDTAVYYCNPATSKSSYRHYDYWGQGTQVTVSS | high polyreactivity |
| QVQLVESGGGLVQEGGSLRLSCAASGSTFFTYAMGWYRQAPGKERELVAAISSSGGSTYYADSVKGRFTISRDNAKNTVYLQMNSLIPEDTAVDYCNAKLYLPYDPTDEYDYWGQGTQVTVSS | low polyreactivity |
| QVQLVESGGGLVQEGGSLRLSCAASGITFTSYTMGWYRQAPGKERELVAAISSGGSTYYADSVKGRFTISRDNAKNTVYLQMNSLKPEDTAVYYCAAISYVFRMYYWGQGTQVTVSS | high polyreactivity |
| QVQLVESGGGLVQAGGSLRLSCAASGSIFSEYAMGWYRQAPGKERELVAAINDGGGSTYYADSVKGRFTISRDNAKNTVYLQMNSLKPEDTAVYYCAAETVRWWWLYDYWGQGTQVTVSS | high polyreactivity |
| QVQLVESGGGLVQAGGSLRLSCAASGRTFKYYAMGWYRQAPGKERELVAAITRSGSTNYADSVKGRFTISRDNAKNSVYLQMNSLKPEDTAVYYCAADVTLYYRGRRYYYWGQGTQVTVSS | high polyreactivity |
| QVQLVESGGGLVQAGGSLRLSCAASGSIFDVNPMGWYRQAPGKERELVAAISQRGTRTYYADSVKGRFTISRDNAKNTVYLQMNSLKPEDTAVYSCNRGGWRQYDSWGQGTQVTVSS | high polyreactivity |
| QVQLVESGGGLVQAGGSLRLSCAASGGTFSKNAMGWYRQAPGKEREFVAAISSTGGDTTYYADSVKGRFTISRDNAKNTVYLQMNSLKPEDTAVYYCNADYIFWPWYDYWGQGTQVTVSS | low polyreactivity |
| QVQLVESGGCLVQAGGSLRLSCAASGSIFTKYTMGWYRQAPGRERELVAAITLRGTSTYYADSVKGRFTISRDIAKNTVYLQMNSLKPEDTAVYYCNKLYSWVVAYDYWGQGTQVTVSS | high polyreactivity |
| QVLLVESGGGLVQAGGTLRLSCADSGFTFVTYGMGWYRQEPGKERELVARISSSSTNYADSVKGRFTISRDNAKNTVYLQMKSLKPEDTEVYYCAAVHYRWWYRSAYDFWGQGTQVTVSS | low polyreactivity |
